One data set has as its target H1.2 (Homo sapiens, UniProt P16403 1-213). Put plainly: condensate FRAP; 5 uM histone, 5 uM DNA; Condensates: 1x PBS, RT; array EMSA: agarose gel with competitor DNA, buffer not in the material. To be noted: protein: recombinant; tags: C-terminal His6; label: Atto-390 at 5' end of the reverse strand; blunt.
In data set [1] the target is T1, linker histone H1.2 (unmodified, recombinant) (human, UniProt P16403 1-213).
T1 construct: human linker histone H1.2; also called non-modified H1.2; unmodified H1.2; source: E. coli BL21 (DE3), purified from inclusion bodies (His-tag resin); not shown: Strep-tag II, N-terminal, kept; His6, C-terminal, kept
The data set can be described thus: cross-linking; XL-MS: histone/Ub and SIRT1 at molar ratio 1:1 in 1x PBS, 2.75 mM BS3-H12/D12, 10 min on ice then 20 min at 30 °C; three biological replicates. To be noted: both partners purified.

H1.2, sequence (P16403 whole entry): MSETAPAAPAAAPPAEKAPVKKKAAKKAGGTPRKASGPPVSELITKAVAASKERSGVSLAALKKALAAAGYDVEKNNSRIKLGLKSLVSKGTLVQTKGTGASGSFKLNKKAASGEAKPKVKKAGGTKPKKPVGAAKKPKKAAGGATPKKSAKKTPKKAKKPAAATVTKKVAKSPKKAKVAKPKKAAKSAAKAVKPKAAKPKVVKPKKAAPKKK
T1 sequence (P16403 whole entry): as above

B1: 601 DNA (dsDNA)
DNA 1: CTATACGCGGCCGCCCTGGAGAATCCCGGTGCCGAGGCCGCTCAATTGGTCGTAGCAAGCTCTAGCACCGCTTAAACGCACGTACGCGCTGTCCCCCGCGTTTTAACCGCCAAGGGGATTACTCCCTAGTCTCCAGGCACGTGTCAGATATATACATCCTGTGCATGTGGATCCGAAT
DNA 2: ATTCGGATCCACATGCACAGGATGTATATATCTGACACGTGCCTGGAGACTAGGGAGTAATCCCCTTGGCGGTTAAAACGCGGGGGACAGCGCGTACGTGCGTTTAAGCGGTGCTAGAGCTTGCTACGACCAATTGAGCGGCCTCGGCACCGGGATTCTCCAGGGCGGCCGCGTATAG
As to B1, the binding result with H1.2 is “binds”.

B2: SIRT1 with N-terminal deletion (recombinant) (enzyme, human, UniProt Q96EB6 1-3, looked up)
chain: MADEAAAAGGEQEAQATAAAGEGDNGPGLQGPSREPPLADNLYDEDDDDEGEEEEEAAAAAIGYRDNLLFGDEIITNGFHSCESDEEDRASHASSSDWTPRPRIGPYTFVQQHLMIGTDPRTILKDLLPETIPPPELDDMTLWQIVINILSEPPKRKKRKDINTIEDAVKLLQECKKIIVLTGAGVSVSCGIPDFRSRDGIYARLAVDFPDLPDPQAMFDIEYFRKDPRPFFKFAKEIYPGQFQPSLCHKFIALSDKEGKLLRNYTQNIDTLEQVAGIQRIIQCHGSFATASCLICKYKVDCEAVRGDIFNQVVPRCPRCPADEPLAIMKPEIVFFGENLPEQFHRAMKYDKDEVDLLIVIGSSLKVRPVALIPSSIPHEVPQILINREPLPHLHFDVELLGDCDVIINELCHRLGGEYAKLCCNPVKLSEITEKPPRTQKELAYLSELPPTPLHVSEDSSSPERTSPPDSSVIVTLLDQAAKSNDDLDVSESKGCMEEKPQEVQTSRNVESIAEQMENPDLKNVGSSTGEKNERTSVAGTVRKCWPNRVAKEQISRRLDGNQYLFLPPNRYIFHGAEVYSDSEDDVLSSSSCGSNSDSGTCQSPSLEEPMEDESEIEEFYNGLEDEPDVPERAGGAGFGTDGDDQEAINEAISVKQEVTDMNYPSNKS
notes: human NAD+-dependent deacetylase SIRT1, aa 1-3 (construct of 669 aa: aa 1-3 + 82-747); human NAD+-dependent deacetylase SIRT1, aa 82-747 (construct of 669 aa: aa 1-3 + 82-747); source: E. coli BL21 (DE3), purified (HisTrap FF, size-exclusion chromatography); not shown: His6, C-terminal, kept
As to B2, the binding result in data set [1] is recorded as “binds”.

Source of the values: paper PMC8190259, “Site-specific ubiquitylation acts as a regulator of linker histone H1” (Nature Communications, 2021).
